Assays:
[1] = molecular target: human CLDN6 fused to GFP, expressed on engineered HEK293T cells (HEK293T-CLDN6-mGFP) (human) (UniProt P56747); test: FACS, 0.3 µg Ab, 293T clone with human CLDN6
[2] = molecular target: mouse CLDN6 fused to GFP, expressed on engineered HEK293T cells (mouse) (UniProt Q9Z262); test: FACS, 293T clone with mouse CLDN6, dose not given
[3] = molecular target: CLDN6 endogenously expressed by human cancer cell lines (ARK2, OVCA429) (human) (UniProt P56747); test: FACS, 1.5 µg Ab, OVCA429 cells
[4] = molecular target: human CLDN6 fused to GFP, expressed on engineered HEK293T cells (HEK293T-CLDN6-mGFP) (human) (UniProt P56747); test: FACS, 1.5 µg Ab, 293T clone with human CLDN6
[5] = molecular target: CLDN6 endogenously expressed by human cancer cell lines (ARK2, OVCA429) (human) (UniProt P56747); test: FACS, 0.3 µg Ab, ARK2 cells
[6] = molecular target: CLDN6 endogenously expressed by human cancer cell lines (ARK2, OVCA429) (human) (UniProt P56747); test: FACS, 1.5 µg Ab, ARK2 cells

Chain of CLDN6 endogenously expressed by human cancer cell lines (ARK2, OVCA429) (human) (P56747 whole entry, the tested form may be a part): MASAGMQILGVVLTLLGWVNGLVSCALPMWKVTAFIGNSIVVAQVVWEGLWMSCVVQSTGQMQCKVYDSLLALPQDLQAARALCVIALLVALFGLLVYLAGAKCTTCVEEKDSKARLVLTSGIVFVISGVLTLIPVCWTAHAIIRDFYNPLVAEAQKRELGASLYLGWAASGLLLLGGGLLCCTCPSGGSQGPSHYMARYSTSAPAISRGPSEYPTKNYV
Chain of human CLDN6 fused to GFP, expressed on engineered HEK293T cells (HEK293T-CLDN6-mGFP) (human) (P56747 whole entry, change not shown, the tested form may be a part): as the sequence (P56747 whole entry, the tested form may be a part) above
Chain of mouse CLDN6 fused to GFP, expressed on engineered HEK293T cells (mouse) (Q9Z262 whole entry, change not shown, the tested form may be a part): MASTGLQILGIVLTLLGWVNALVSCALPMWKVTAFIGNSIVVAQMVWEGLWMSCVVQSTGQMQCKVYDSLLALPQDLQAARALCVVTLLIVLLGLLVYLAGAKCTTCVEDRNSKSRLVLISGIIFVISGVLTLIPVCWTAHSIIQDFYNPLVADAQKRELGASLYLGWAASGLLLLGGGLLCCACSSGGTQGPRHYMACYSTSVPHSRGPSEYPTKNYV

FACS fluorescence [1]: 768
FACS fluorescence [2]: 1060
FACS fluorescence [3]: 886
FACS fluorescence [4]: 768
FACS fluorescence [5]: 1350
FACS fluorescence [6]: 1350
Substance: 2nd Ab only (antibody)

Reference: patent publication US20250333501A1
